Measurements taken from patent US20200010567A1 (NEURIMMUNE, published 2020).

What was measured:
[1] = target: T1, BSA-coupled (GP)15 DPR protein peptide (bovine, conjugated via a bifunctional linker (SMCC) to bovine serum albumin); test: indirect ELISA, BSA-coupled peptide coated, antibody titrated [also D00014 FIG. 3H]
T1 construct: also called BSA-(GP)15
Procedure: (§1) In brief, dipeptide repeat proteins were synthesized and purified by Schafer-N(Copenhagen, Denmark): (GA)₁₅: H-CHHHHHH(GA)₁₅-OH; (GP)₁₅: H-C(GP)₁₅-OH; (GR)₁₅: H-C(GR)₁₅-OH; (PA)₁₅: H-C(PA)₁₅-OH; (PR)₁₅: H—C(PR)₁₅-OH. DPR protein peptides were then conjugated via a bifunctional linker (SMCC) to bovine serum albumin (BSA). 96-well microplates (Corning Incorporated, Corning, USA) were coated with BSA-coupled or -uncoupled dipeptide repeat protein peptides at a concentration of either 5 μg/ml or 20 μg/ml in coating buffer (15 mM Na₂CO₃, 35 mM NaHCO₃, pH 9.42). Non-specific binding sites were blocked for 1 h at room temperature with PBS/0.1% Tween®-20 containing 2% BSA (Sigma-Aldrich, Buchs, Switzerland). Primary antibodies were diluted to the indicated concentrations and incubated 1 h at room temperature, followed by incubation with a donkey anti-human IgG Fcγ-specific antibody conjugated with HRP (Jackson ImmunoResearch Laboratories, Inc., West Grove, USA). Binding was determined by measurement of HRP activity in a standard colorimetric assay. EC₅₀ values were estimated by non-linear regression using GraphPad Prism software (San Diego, USA).

[2] = target: T2, BSA-coupled (PA)15 DPR protein peptide (bovine, UniProt P02769 25-607, conjugated via a bifunctional linker (SMCC) to bovine serum albumin); test: indirect ELISA, BSA-coupled peptide coated, antibody titrated [also D00015 FIG. 3K]
T2 construct: also called BSA-(PA)15
Procedure: as §1

T1 sequence (peptide, as listed by the source limits assumed, chain 1 of 2): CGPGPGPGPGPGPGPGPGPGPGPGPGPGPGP
T1 sequence (P02769 25-607 limits assumed, chain 2 of 2): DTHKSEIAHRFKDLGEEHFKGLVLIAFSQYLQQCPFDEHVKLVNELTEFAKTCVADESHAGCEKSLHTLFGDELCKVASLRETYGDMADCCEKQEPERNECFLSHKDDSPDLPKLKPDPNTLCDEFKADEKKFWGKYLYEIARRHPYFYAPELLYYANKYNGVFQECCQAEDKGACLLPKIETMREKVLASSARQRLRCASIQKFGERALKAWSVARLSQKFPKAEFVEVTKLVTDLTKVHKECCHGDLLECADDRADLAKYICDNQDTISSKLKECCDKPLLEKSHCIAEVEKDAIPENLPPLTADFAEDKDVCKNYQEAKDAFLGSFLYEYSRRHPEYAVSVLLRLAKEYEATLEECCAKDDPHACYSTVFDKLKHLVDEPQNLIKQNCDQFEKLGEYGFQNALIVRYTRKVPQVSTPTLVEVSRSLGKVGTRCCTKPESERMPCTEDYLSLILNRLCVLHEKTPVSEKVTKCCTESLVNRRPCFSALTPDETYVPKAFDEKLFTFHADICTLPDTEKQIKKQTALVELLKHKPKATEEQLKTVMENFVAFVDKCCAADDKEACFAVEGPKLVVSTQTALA
T2 sequence (peptide, as listed by the source limits assumed, chain 1 of 2): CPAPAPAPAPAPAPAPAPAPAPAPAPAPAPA
T2 sequence (P02769 25-607 limits assumed, chain 2 of 2): as the sequence (P02769 25-607 limits assumed, chain 2 of 2) above

B1: NI-308.46E9 (antibody, V domains shown)
VH: QVQLQESGPGLVKPSETLSLTCTVSGASISGSTYYWGWIRQPPGKGLEYIGRIYYSGSTYYNPSLKSRATISVDTSKNQLSLTLSSVTAADTAVYYCVRPFYAGSGNSPFDYWGQGTLVTVSS
VL: CEIVLTQSPATVSVSPGERATLSCRASQSVSTNLAWYQQKPGQPPRLLIYGASTRATGIPARFSGSGSGAEFTLTISSLQSEDFVVYYCQQYNNWPPAFGGGTKVEIK
notes: Recombinant complete human IgG1, kappa
B1 showed an EC50 [1] of 12.1 nM.

B2: NI-308.4M1 (antibody, V domains shown)
VH: EVQLVETGGGVVQPGGSLRLSCEASGFTIGTYAMHWVRQFPGKGLDWVAVISFDGTTEYYTDAVKGRFTISRDNAKNTLYLQMNYLRGDDTAIYFCARDFTSSGETGSWTQVPDLWGQGTLVTVSS
VL: CEIVMTQSPATLSLSPGERATLSCRASQSVTKYLAWYQQKPGQAPRLLIYDVSYRAAGTPARFSGSGSGTDFTLTISSLEPEDFAVYYCHQRSSWPPVTFGGGTKVEIK
notes: as for B1
B2 was tested, and the EC50 [2] was 0.14 nM.
